In the supplement of paper PMC5998384:

Experiments:
HeLa Kyoto [1] = test: solubility in G1/S (NP-40 vs SDS abundance) (log2 ratio); higher = more soluble; conditions: cell cycle stage: G1/S
HeLa Kyoto [2] = test: melting temperature (median over replicates), in situ; higher = more thermally stable
HeLa Kyoto [3] = test: solubility change mitosis vs G1/S (difference of NP-40 vs SDS log2 ratios) (log2 ratio difference); higher = more soluble in mitosis
HeLa Kyoto [4] = test: thermal stability score vs G1/S (z-score of summed log2 fold changes over temperatures); higher = more thermally stable than in G1/S
[5] = cell cycle stage: early G1 (4.5 h after nocodazole release)
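Wherever melting temperature (median over replicates), in situ is given: HeLa Kyoto cells synchronized by double thymidine or nocodazole block, proteins quantified by TMT10plex mass spectrometry, three independent biological replicates.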
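Wherever solubility change mitosis vs G1/S (difference of NP-40 vs SDS log2 ratios) is given: synchronized HeLa Kyoto cells (double thymidine block for G1/S, nocodazole release for mitosis), protein amounts in NP-40 versus SDS lysates quantified by mass spectrometry, three biological replicates.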
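Wherever solubility in G1/S (NP-40 vs SDS abundance) is given: HeLa Kyoto cells arrested at G1/S by double thymidine block, proteins quantified by TMT10plex mass spectrometry in mild NP-40 versus SDS extracts, three biological replicates.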
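Wherever thermal stability score vs G1/S (z-score of summed log2 fold changes over temperatures) is given: synchronized HeLa Kyoto cells, proteins quantified by TMT10plex mass spectrometry, three biological replicates, mitosis taken 0.5 h after nocodazole release, G1/S directly after double thymidine block.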

Row | Sequence | solubility in G1/S (log2) (HeLa Kyoto [1]) | melting temperature (HeLa Kyoto [2]; cell cycle stage: G1/S) [°C] | melting temperature (HeLa Kyoto [2]; cell cycle stage: mitosis) [°C] | solubility change mitosis (log2) (HeLa Kyoto [3]) | thermal stability score (HeLa Kyoto [4]; [5]) | thermal stability score (HeLa Kyoto [4]; cell cycle stage: mitosis)
1 | MATKTAGVGRWEVVKKGRRPGVGAGAGGRGGGRNRRALGEANGVWKYDLTPAIQTTSTLYERGFENIMKRQNKEQVPPPAVEPKKPGNKKQPKKVATPPNQNQKQGRFRSLEEALKALDVADLQKELDKSQSVFSGNPSIWLKDLASYLNYKLQAPLSEPTLSQHTHDYPYSLVSRELRGIIRGLLAKAAGSLELFFDHCLFTMLQELDKTPGESLHGYRICIQAILQDKPKIATANLGKFLELLRSHQSRPAKCLTIMWALGQAGFANLTEGLKVWLGIMLPVLGIKSLSPFAITYLDRLLLMHPNLTKGFGMIGPKDFFPLLDFAYMPNNSLTPSLQEQLCQLYPRLKVLAFGAKPDSTLHTYFPSFLSRATPSCPPEMKKELLSSLTECLTVDPLSASVWRQLYPKHLSQSSLLLEHLLSSWEQIPKKVQKSLQETIQSLKLTNQELLRKGSSNNQDVVTCDMACKGLLQQVQGPRLPWTRLLLLLLVFAVGFLCHDLRSHSSFQASLTGRLLRSSGFLPASQQACAKLYSYSLQGYSWLGETLPLWGSHLLTVVRPSLQLAWAHTNATVSFLSAHCASHLAWFGDSLTSLSQRLQIQLPDSVNQLLRYLRELPLLFHQNVLLPLWHLLLEALAWAQEHCHEACRGEVTWDCMKTQLSEAVHWTWLCLQDITVAFLDWALALISQQ [TMEM214] | -0.173 | 51.1 | 49.8 | 0.000207 | -1.35 | -0.782
2 | MATLPAEPSAGPAAGGEAVAAAAATEEEEEEARQLLQTLQAAEGEAAAAAGAGAGAAAAGAEGPGSPGVPGSPPEAASEPPTGLRFSPEQVACVCEALLQAGHAGRLSRFLGALPPAERLRGSDPVLRARALVAFQRGEYAELYRLLESRPFPAAHHAFLQDLYLRARYHEAERARGRALGAVDKYRLRKKFPLPKTIWDGEETVYCFKERSRAALKACYRGNRYPTPDEKRRLATLTGLSLTQVSNWFKNRRQRDRTGAGGGAPCKSESDGNPTTEDESSRSPEDLERGAAPVSAEAAAQGSIFLAGTGPPAPCPASSSILVNGSFLAASGSPAVLLNGGPVIINGLALGEASSLGPLLLTGGGGAPPPQPSPQGASETKTSLVLDPQTGEVRLEEAQSEAPETKGAQVAAPGPALGEEVLGPLAQVVPGPPTAATFPLPPGPVPAVAAPQVVPLSPPPGYPTGLSPTSPLLNLPQVVPTSQVVTLPQAVGPLQLLAAGPGSPVKVAAAAGPANVHLINSGVGVTALQLPSATAPGNFLLANPVSGSPIVTGVALQQGKIILTATFPTSMLVSQVLPPAPGLALPLKPETAISVPEGGLPVAPSPALPEAHALGTLSAQQPPPAAATTSSTSLPFSPDSPGLLPNFPAPPPEGLMLSPAAVPVWSAGLELSAGTEGLLEAEKGLGTQAPHTVLRLPDPDPEGLLLGATAGGEVDEGLEAEAKVLTQLQSVPVEEPLEL [SIX5] | -0.308 | – | 50.7 | 0.346 | 0.121 | 0.872
3 | MATPGNLGSSVLASKTKTKKKHFVAQKVKLFRASDPLLSVLMWGVNHSINELSHVQIPVMLMPDDFKAYSKIKVDNHLFNKENMPSHFKFKEYCPMVFRNLRERFGIDDQDFQNSLTRSAPLPNDSQARSGARFHTSYDKRYIIKTITSEDVAEMHNILKKYHQYIVECHGITLLPQFLGMYRLNVDGVEIYVIVTRNVFSHRLSVYRKYDLKGSTVAREASDKEKAKELPTLKDNDFINEGQKIYIDDNNKKVFLEKLKKDVEFLAQLKLMDYSLLVGIHDVERAEQEEVECEENDGEEEGESDGTHPVGTPPDSPGNTLNSSPPLAPGEFDPNIDVYGIKCHENSPRKEVYFMAIIDILTHYDAKKKAAHAAKTVKHGAGAEISTVNPEQYSKRFLDFIGHILT [PIP4K2A] | 0.309 | 49.8 | 49.4 | -0.142 | 2.24 | 1.11
4 | MATPSKKTSTPSPQPSKRALPRDPSSEVPSKRKNSAPQLPLLQSSGPFVEGSIVRISMENFLTYDICEVSPGPHLNMIVGANGTGKSSIVCAICLGLAGKPAFMGRADKVGFFVKRGCSRGMVEIELFRASGNLVITREIDVAKNQSFWFINKKSTTQKIVEEKVAALNIQVGNLCQFLPQDKVGEFAKLSKIELLEATEKSIGPPEMHKYHCELKNLREKEKQLETSCKEKTEYLQKMVQRNERYKQDVERFYERKRHLDLIEMLEAKRPWVEYENVRQEYEEVKLVRDRVKEEVRKLKEGQIPVTCRIEEMENERHNLEARIKEKATDIKEASQKCKQKQDVIERKDKHIEELQQALIVKQNEELDRQRRIGNTRKMIEDLQNELKTTENCENLQPQIDAITNDLRRIQDEKALCEGEIIDKRRERETLEKEKKSVDDHIVRFDNLMNQKEDKLRQRFRDTYDAVLWLRNNRDKFKQRVCEPIMLTINMKDNKNAKYIENHIPSNDLRAFVFESQEDMEVFLKEVRDNKKLRVNAVIAPKSSYADKAPSRSLNELKQYGFFSYLRELFDAPDPVMSYLCCQYHIHEVPVGTEKTRERIERVIQETRLKQIYTAEEKYVVKTSFYSNKVISSNTSLKVAQFLTVTVDLEQRRHLEEQLKEIHRKLQAVDSGLIALRETSKHLEHKDNELRQKKKELLERKTKKRQLEQKISSKLGSLKLMEQDTCNLEEEERKASTKIKEINVQKAKLVTELTNLIKICTSLHIQKVDLILQNTTVISEKNKLESDYMAASSQLRLTEQHFIELDENRQRLLQKCKELMKRARQVCNLGAEQTLPQEYQTQVPTIPNGHNSSLPMVFQDLPNTLDEIDALLTEERSRASCFTGLNPTIVQEYTKREEEIEQLTEELKGKKVELDQYRENISQVKERWLNPLKELVEKINEKFSNFFSSMQCAGEVDLHTENEEDYDKYGIRIRVKFRSSTQLHELTPHHQSGGERSVSTMLYLMALQELNRCPFRVVDEINQGMDPINERRVFEMVVNTACKENTSQYFFITPKLLQNLPYSEKMTVLFVYNGPHMLEPNTWNLKAFQRRRRRITFTQPS [SMC5] | -0.139 | 50.6 | 50.7 | -0.0502 | 0.153 | 0.876
5 | MATQADLMELDMAMEPDRKAAVSHWQQQSYLDSGIHSGATTTAPSLSGKGNPEEEDVDTSQVLYEWEQGFSQSFTQEQVADIDGQYAMTRAQRVRAAMFPETLDEGMQIPSTQFDAAHPTNVQRLAEPSQMLKHAVVNLINYQDDAELATRAIPELTKLLNDEDQVVVNKAAVMVHQLSKKEASRHAIMRSPQMVSAIVRTMQNTNDVETARCTAGTLHNLSHHREGLLAIFKSGGIPALVKMLGSPVDSVLFYAITTLHNLLLHQEGAKMAVRLAGGLQKMVALLNKTNVKFLAITTDCLQILAYGNQESKLIILASGGPQALVNIMRTYTYEKLLWTTSRVLKVLSVCSSNKPAIVEAGGMQALGLHLTDPSQRLVQNCLWTLRNLSDAATKQEGMEGLLGTLVQLLGSDDINVVTCAAGILSNLTCNNYKNKMMVCQVGGIEALVRTVLRAGDREDITEPAICALRHLTSRHQEAEMAQNAVRLHYGLPVVVKLLHPPSHWPLIKATVGLIRNLALCPANHAPLREQGAIPRLVQLLVRAHQDTQRRTSMGGTQQQFVEGVRMEEIVEGCTGALHILARDVHNRIVIRGLNTIPLFVQLLYSPIENIQRVAAGVLCELAQDKEAAEAIEAEGATAPLTELLHSRNEGVATYAAAVLFRMSEDKPQDYKKRLSVELTSSLFRTEPMAWNETADLGLDIGAQGEPLGYRQDDPSYRSFHSGGYGQDALGMDPMMEHEMGGHHPGADYPVDGLPDLGHAQDLMDGLPPGDSNQLAWFDTDL [CTNNB1] | 0.0555 | 53.4 | 52.4 | -0.093 | 0.0437 | 0.0622
